Assay [1] has as its target HLA-B*07 (human). In words: UV peptide exchange ELISA; +++ = yield >50. For orientation: ELISA stands for enzyme-linked immunosorbent assay.
Assay [2] has as its target HLA-B*07 (human). Description: UV peptide exchange ELISA; ++ = yield >20%.

FPHMATTAF registered a peptide exchange yield in assay [1] of 50 to 75%.

APEKARAFL gave a peptide exchange yield in assay [1] of 50 to 75%.

In turn, KIIASGNHL came in with a peptide exchange yield in assay [2] of 20 to 50%.

In turn, EPLSVTASY registered a peptide exchange yield in assay [2] of 20 to 50%.

Regarding LPLRAVNLNL, the peptide exchange yield in assay [1] was 50 to 75%.

Consider APVGGNVTSSF, for which, in assay [1], the peptide exchange yield fell in the range of 50 to 75%.

Turning to SPARALLLALA, the peptide exchange yield in assay [1] fell in the range of 50 to 75%.

As to LPMSKRQEY, in assay [1], the peptide exchange yield fell in the range of 50 to 75%.

Regarding LPELPTTLTF, the peptide exchange yield in assay [2] fell in the range of 20 to 50%.

For the molecule RPFSREMDL, the peptide exchange yield in assay [1] was 50 to 75%.

For VPSCGRSVEGL, the peptide exchange yield in assay [1] was 50 to 75%.

IPENRVVSY showed a peptide exchange yield in assay [2] of 20 to 50%.

Turning to TRPWSGPYIL, the peptide exchange yield in assay [1] lay within 50 to 75%.

In assay [2], SPAKQFNIY returned a peptide exchange yield of 20 to 50%.

For the molecule RPSGTAGAALLA, the peptide exchange yield in assay [2] is 20 to 50%.

Molecule KPQSTISGL had a peptide exchange yield in assay [1] of 50 to 75%.

Turning to MAGPAIHTAPM, in assay [2], the peptide exchange yield fell in the range of 20 to 50%.

Molecule ASKILETSL showed a peptide exchange yield in assay [2] of 20 to 50%.

Take FVPPSGPSNPM: the peptide exchange yield in assay [2] was 20 to 50%.

In turn, QPISGNPVTL returned a peptide exchange yield in assay [1] of 50 to 75%.

In turn, HVRPQTNCI displayed a peptide exchange yield in assay [1] of 50 to 75%.

In turn, SVPVATVEL displayed a peptide exchange yield in assay [2] of 20 to 50%.

As to RPRYSIGL, the peptide exchange yield in assay [1] is 50 to 75%.

Turning to APLPPPRAL, in assay [1], the peptide exchange yield was in the range of 50 to 75%.

With VPFVPRTSV, the peptide exchange yield in assay [1] fell in the range of 50 to 75%.

In assay [2], APAAPAAVPS showed a peptide exchange yield of 20 to 50%.

Regarding VPVSHPVLTL, the peptide exchange yield in assay [1] is 50 to 75%.

In the case of MPAVSGPGPLF, the peptide exchange yield in assay [1] is 50 to 75%.

In turn, RPEDGRPRL had a peptide exchange yield in assay [1] of 50 to 75%.

In assay [2], SPFWIHQA had a peptide exchange yield of 20 to 50%.

HAAASFETL came in with a peptide exchange yield in assay [2] of 20 to 50%.

LPPPRALTL: the peptide exchange yield in assay [1] was in the range of 50 to 75%.

Molecule KPAAAGVKKVA had a peptide exchange yield in assay [1] of 50 to 75%.

In turn, KAHVRIEL had a peptide exchange yield in assay [2] of 20 to 50%.

For VIINNPISL, the peptide exchange yield in assay [2] fell in the range of 20 to 50%.

Turning to MPMQDIKMILKM, the peptide exchange yield in assay [1] lay within 50 to 75%.

Regarding YVVKPLHPF, the peptide exchange yield in assay [1] lay in the range of 50 to 75%.

Regarding APRPRLLLL, the peptide exchange yield in assay [1] was 50 to 75%.

Regarding VPAAPTKAL, in assay [1], the peptide exchange yield lay within 50 to 75%.

For the molecule YPGFTKRL, in assay [1], the peptide exchange yield was 50 to 75%.

For TSPLPPTV, the peptide exchange yield in assay [1] was in the range of 50 to 75%.

In assay [1], RPGPSDPAA yielded a peptide exchange yield of 50 to 75%.

QPRPSSEKI: the peptide exchange yield in assay [1] lay in the range of 50 to 75%.

PEKARAFL registered a peptide exchange yield in assay [1] of 50 to 75%.

In turn, RIRVTSEVL came in with a peptide exchange yield in assay [1] of 50 to 75%.

In assay [1], APMAPGRSP returned a peptide exchange yield of 50 to 75%.

KEDNPSGHTYTL yielded a peptide exchange yield in assay [1] of 50 to 75%.

In turn, REPIMKADML yielded a peptide exchange yield in assay [2] of 20 to 50%.

IPVSHPVLTF registered a peptide exchange yield in assay [2] of 20 to 50%.

MTLPATTLTL: the peptide exchange yield in assay [2] is 20 to 50%.

In assay [1], MPMQDIKMI yielded a peptide exchange yield of 50 to 75%.

Take GPASDHPSL: the peptide exchange yield in assay [1] was 50 to 75%.

As to SVIGPNSRL, in assay [2], the peptide exchange yield lay within 20 to 50%.

In the case of VPAHLVAA, the peptide exchange yield in assay [2] fell in the range of 20 to 50%.

In assay [1], APCNGNVAV registered a peptide exchange yield of 50 to 75%.

Consider LPLGGLPLLI, for which the peptide exchange yield in assay [1] fell in the range of 50 to 75%.

Consider KPRATWTLKL, for which the peptide exchange yield in assay [1] was 50 to 75%.

The molecule YGPYGSGSGW gave a peptide exchange yield in assay [2] of 20 to 50%.

In assay [2], IPVAIKEL displayed a peptide exchange yield of 20 to 50%.

On to HPSQESPTL, for which the peptide exchange yield in assay [1] lay in the range of 50 to 75%.

In turn, MARTGGMVVI displayed a peptide exchange yield in assay [2] of 20 to 50%.

On to APFAPLHGGGSL, for which the peptide exchange yield in assay [1] was 50 to 75%.

GAYDKARYL displayed a peptide exchange yield in assay [2] of 20 to 50%.

On to SQRPPATSQA, for which the peptide exchange yield in assay [2] fell in the range of 20 to 50%.

The molecule KPRGPIDI returned a peptide exchange yield in assay [2] of 20 to 50%.

RTKEEINEL showed a peptide exchange yield in assay [2] of 20 to 50%.

Take SALPTTISF: in assay [1], the peptide exchange yield was 50 to 75%.

In turn, IPFADVKSF returned a peptide exchange yield in assay [2] of 20 to 50%.

The values are drawn from patent publication US20200040057A1 (IMMATICS BIOTECHNOLOGIES, published 2020).
